Test results: patent US20230143091A1 (SORRISO PHARMACEUTICALS, published 2023)

Assays:
[1] = biological target: T1, IL-7R (as used in the IL-7/IL-7R neutralisation ELISA) (UniProt P16871 21-239, limits assumed); assay: IL-7/IL-7R neutralisation ELISA; blocked ligand IL-7, bound IL-7 detected with biotinylated anti-hIL-7 and Extravidin-HRP
T1 sequence (looked up): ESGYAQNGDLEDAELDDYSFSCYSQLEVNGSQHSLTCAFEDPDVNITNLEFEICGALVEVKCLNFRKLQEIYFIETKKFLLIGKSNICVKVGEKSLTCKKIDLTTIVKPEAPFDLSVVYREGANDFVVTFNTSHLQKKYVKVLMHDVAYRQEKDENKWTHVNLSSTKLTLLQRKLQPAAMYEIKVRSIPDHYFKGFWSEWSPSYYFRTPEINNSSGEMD

human TNFα = biological target: T2, human TNFα (human, UniProt P01375 77-233); assay: competition ELISA on plate-coated human TNFα; competitor 2 nM biotinylated adalimumab, detected with ExtrAvidin-HRP
T2 construct: also called TNF-alpha; Tumour necrosis factor-alpha
T2 sequence (P01375 77-233 limits assumed): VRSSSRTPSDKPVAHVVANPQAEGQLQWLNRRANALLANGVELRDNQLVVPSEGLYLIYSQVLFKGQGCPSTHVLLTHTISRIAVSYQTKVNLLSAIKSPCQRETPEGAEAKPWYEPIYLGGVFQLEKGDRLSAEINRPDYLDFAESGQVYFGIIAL
Procedure: ELISA plates were coated with 100 ng/mL human TNFα in 250 μg/mL bovine serum albumin (BSA) in phosphate buffered saline (1×PBS) and blocked with 1% BSA in 1×PBS.

[2] = biological target: T3, IL-7R on human lymphocytes (hPBMCs) (human, UniProt P16871 21-459); assay: cell-based or functional assay
T3 sequence (looked up): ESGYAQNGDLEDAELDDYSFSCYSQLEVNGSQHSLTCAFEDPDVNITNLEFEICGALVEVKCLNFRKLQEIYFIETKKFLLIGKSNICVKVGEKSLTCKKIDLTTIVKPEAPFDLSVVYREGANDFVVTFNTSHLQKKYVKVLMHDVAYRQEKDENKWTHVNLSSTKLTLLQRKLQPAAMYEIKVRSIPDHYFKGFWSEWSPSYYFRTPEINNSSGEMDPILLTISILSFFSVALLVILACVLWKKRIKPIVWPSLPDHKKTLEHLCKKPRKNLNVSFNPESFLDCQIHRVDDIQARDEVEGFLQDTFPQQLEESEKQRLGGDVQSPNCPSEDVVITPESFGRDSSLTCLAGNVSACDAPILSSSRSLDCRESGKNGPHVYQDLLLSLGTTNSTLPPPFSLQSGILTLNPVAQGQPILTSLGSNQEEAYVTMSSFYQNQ

B1: FU3K bihead (bispecific antibody)
chain: DVQLVESGGGLVQPGGSLKLSCAASGFDFSSHWMYWVRQAPGKELEWLSEINTNGLITHYGDSVKGRFTVSRNNAANKMYLELTRLEPEDTALYYCARNQHGLNKGQGTQVTVSSGGGGSGGGGSKGGGGSGGGGSEVQLVESGGGLVQAGGSLRLSCESSISTFSSDAMGWFRQAPGKELEFLAAIGWSGAVTHYSDSVKGRFTISRDNAKNTVYLQMNSLRAEDTGRYYCAEDYDTDVWQYWGQGTQVTVSS
notes: Produced in S. cerevisiae; also called pre-digestion FU3K; heterobihead
- IC50 (read off the curve) [1]: ~0.2 nM

B2: FU3K after trypsin digestion (other)
VHH 1: DVQLVESGGGLVQPGGSLKLSCAASGFDFSSHWMYWVRQAPGKELEWLSEINTNGLITHYGDSVKGRFTVSRNNAANKMYLELTRLEPEDTALYYCARNQHGLNKGQGTQVTVSSGGGGSGGGGSK
VHH 2: GGGGSGGGGSEVQLVESGGGLVQAGGSLRLSCESSISTFSSDAMGWFRQAPGKELEFLAAIGWSGAVTHYSDSVKGRFTISRDNAKNTVYLQMNSLRAEDTGRYYCAEDYDTDVWQYWGQGTQVTVSS
notes: A mixture of two separate monomers, not a complex; also called post-digestion FU3K; ID-38F and ID-A62U monomer arms released from FU3K
- IC50 (read off the curve) [1]: ~0.4 nM

B3: ID-38F (VHH)
VHH: DVQLVESGGGLVQPGGSLKLSCAASGFDFSSHWMYWVRQAPGKELEWLSEINTNGLITHYGDSVKGRFTVSRNNAANKMYLELTRLEPEDTALYYCARNQHGLNKGQGTQVTVSS
- binding result (human TNFα): binds

B4: V7R-2E9 (VHH)
VHH: EVQLVESGGGLVQAGGSLRLSCESSISTFSSDAMGWFRQAPGKEREFLAAIGWSGAVTHYSDSVQGRFTISRDNAKNTVYLQMNSLKSEDTGRYYCAEDYDTDVWQYWGQGTQVTVSS
- IL-7 induced pSTAT5 in hPBMCs EC50 nM [2]: 2.86 nM

B5: ID-A62U (VHH)
VHH: DVQLVESGGGLVQAGGSLRLSCESSISTFSSDAMGWFRQAPGKELEFLAAIGWSGAVTHYSDSVKGRFTISRDNAKNTVYLQMNSLRAEDTGRYYCAEDYDTDVWQYWGQGTQVTVSS
notes: Produced in S. cerevisiae; Comprises E1D and R45L mutations relative to ID-A40U
- IC50 (read off the curve) [1]: 0.1 to 0.2 nM
